According to US20210107998A1 (Boehringer Ingelheim, published 2021):

Assays:
Test in all cases: cell-based or functional assay
[1] = molecular target: membrane-bound human BAFF on fixed CHO-K1 cells (human, UniProt Q9Y275 1-285)
[2] = molecular target: T1, Recombinant human BAFF trimer (Boehringer Ingelheim Pharmaceuticals, Inc.) (human, UniProt Q9Y275 134-285, limits assumed)
human BAFF = human BAFF (human, UniProt Q9Y275 134-285, limits assumed)
[3] = molecular target: Recombinant human BAFF 60mer (Boehringer Ingelheim Pharmaceuticals, Inc.) (human, UniProt Q9Y275 134-285, limits assumed)
[4] = molecular target: T1, Recombinant human BAFF trimer …; remark: listed apart in the source
[5] = molecular target: Recombinant cynomolgus BAFF trimer (Boehringer Ingelheim Pharmaceuticals, Inc.) (cynomolgus, UniProt A0A2K5V2X4 134-285)

B1: Control Antibody 3 (anti-BAFF monoclonal antibody) (BAFF (3)) (antibody, V domains shown)
VH: QVQLQQWGAGLLKPSETLSLTCAVYGGSFSGYYWSWIRQPPGKGLEWIGEINHSGSTNYNPSLKSRVTISVDTSKNQFSLKLSSVTAADTAVYYCARGYYDILTGYYYYFDYWGQGTLVTVSS
VL: EIVLTQSPATLSLSPGERATLSCRASQSVSRYLAWYQQKPGQAPRLLIYDASNRATGIPARFSGSGSGTDSTLTISSLEPEDFAVYYCQQRSNWPRTFGQGTKVEIK
IC50, NFkB luciferase reporter, human BAFFR-CHO cells stimulated with fixed human BAFF CHO-K1 cells [1]: 250 pM | IC90, NFkB luciferase reporter, human BAFFR-CHO cells stimulated with fixed human BAFF CHO-K1 cells [1]: 2920 pM | IC50 Geomean, NFkB luciferase reporter, human TACI-CHO cells [2]: 241 pM | IC90 Geomean, NFkB luciferase reporter, human TACI-CHO cells [2]: 618 pM | IC50, 3H-thymidine incorporation, primary human B cells stimulated with anti-IgM and hBAFF (human BAFF): 87.3 pM | IC50, NFkB luciferase reporter, human BAFFR-CHO cells [3]: 15 pM | IC90, NFkB luciferase reporter, human BAFFR-CHO cells [3]: 38 pM | IC50, NFkB luciferase reporter, human BAFFR-CHO cells [4]: 70 pM | IC90, NFkB luciferase reporter, human BAFFR-CHO cells [4]: 417 pM | IC50 Geomean, NFkB luciferase reporter, human BAFFR-CHO cells [5]: 257 pM | IC90 Geomean, NFkB luciferase reporter, human BAFFR-CHO cells [5]: 588 pM
